Measurements reported in patent US12042530B2, “Target peptides for immunotherapy and diagnostics” (University of Virginia Patent Foundation, priority 2012, dated 2024).
Non-standard residues stand in square brackets, D forms with d. No end group written: not given here. pT = C[C@@H](OP(=O)(O)O)[C@H](N)C(=O)O; pS = N[C@@H](COP(=O)(O)O)C(=O)O

How the values were obtained:
[1] = molecular target: T1, HLA-B*0702 (HLA-B7) peptide complexes (Homo sapiens, UniProt P01889); assay: HLA-B*0702 phosphopeptides associated with leukemia samples (isolation of HLA-associated peptides); conditions: for Copies/cell class, ALL1: acute lymphoblastic leukemia sample ALL1; for Copies/cell class, HCL1: hairy cell leukemia sample HCL1; for Copies/cell class, B Cell: healthy B cells; for Copies/cell class, T Cell: healthy T cells
T1 construct: endogenous in cells; host or cells: JY B-lymphoblastoid line; primary ALL, CLL, HCL, AML samples; bone marrow; healthy B and T cells
Excerpt: To identify naturally processed tumor-associated phosphopeptides, HLA-A*0201 (HLA-A2) and HLA-B*0702 (HLA-B7) peptide complexes from four (4) chronic lymphocytic leukemia (CLL) tumor samples, a mantle cell lymphoma sample (MCL), one acute lymphoblastic leukemia (ALL), and an acute myeloid leukemia (AML) sample, in addition to healthy splenic T and B-cells and the cultured lymphoblastoid cell line JY were isolated. These efforts yielded 10 HLA-A2-restricted and 86 HLA-B7-restricted phosphopeptide antigens (see Tables 6 and 7).
All cell lines were grown at 37° C. with 5% CO2 in growth medium consisting of RPMI 1640 supplemented with 10% FCS and two mM L-glutamine. Blood or leukapheresis samples were taken from patients with high-burden leukemia in heparin. Tumor cells were recovered by layering the blood over density gradient (Ficoll) and collecting the tumor layer following centrifugation. The tumor was washed in tris-buffered saline (TBS). The purity of the tumor was assessed using flow cytometry and was >98% pure in all cases. For healthy T and B-cell populations, a normal spleen sample processed and tonsil sample was collected and lymphocytes released through mechanical disruption. Mononuclear cells were isolated using a density gradient and 10^9 T cells isolated using anti-CD19 or anti-CD3 microbeads (Miltenyi Biotec Inc., Auburn, California, United States of America) with purity >98% were obtained. Bone marrow sample was obtained from an elective orthopedic procedure and red cell-depleted using hypotonic lysis. This sample was not processed further.
Class I MHC molecules were immunoaffinity purified from the JY cell line or from primary tumor samples, and their associated peptides were extracted as previously described in Zarling et al., 2006. Approximately 1.2-14×10^9 cells were lysed in a solution containing 20 mM Tris-HCl (pH 8.0), 150 mM NaCl, 1% CHAPS, one mM PMSF, five μg/mL aprotinin, 10 μg/mL leupeptin, 10 μg/mL pepstatin A, 1 μg/ml calyculin A, and phosphatase inhibitor (cocktails I and II; Sigma-Aldrich). The mixture was subjected to centrifugation and the resulting supernatant was passed over protein A sepharose pre-loaded with the HLA-A2-specific antibody BB7.2 or HLA-B7-specific antibody MEL Peptides were eluted from the purified class I MHC molecules with 10% acetic acid.

HLA-B*0702 = molecular target: T2, HLA-B*0702 (Homo sapiens, UniProt P01889); assay: Phosphopeptides presented in association with class I molecules (HLA-B*0702) on cancer cells: melanoma and/or leukemia; design: key: Melanoma (M); Leukemia (L); L/M: Melanoma (M) and/or Leukemia (L); conditions: cancer type on which the HLA-B*0702 phosphopeptide is presented
T2 construct: endogenous in cells; host or cells: melanoma and/or leukemia cells

Substance	Copies/cell class, AML1 [1]	Copies/cell class, CLL2 [1]	Copies/cell class, CLL4 [1]	Copies/cell class, JY [1]	Copies/cell class, ALL1 [1]	Copies/cell class, HCL1 [1]	Copies/cell class, B Cell [1]	Copies/cell class, T Cell [1]	L/M (HLA-B*0702)
323 (RPQRA[pT]SNVF; listed as Homo sapiens) [compound 323]	2 (2 indicates 1-5 copies/cell)	4 (4 indicates >25 copies per cell)	4 (4 indicates >25 copies per cell)	4 (4 indicates >25 copies per cell)	4 (4 indicates >25 copies per cell)	4 (4 indicates >25 copies per cell)	2 (2 indicates 1-5 copies/cell)	4 (4 indicates >25 copies per cell)	L
324 (RPQRAT[pS]NVF; listed as Homo sapiens) [compound 324]	2 (2 indicates 1-5 copies/cell)						2 (2 indicates 1-5 copies/cell)	3 (3 indicates 6-25 copies per cell)	L
325 (RPRAN[pS]GGVDL; listed as Homo sapiens) [compound 325]	2 (2 indicates 1-5 copies/cell)								L
327 (RPRPH[pS]APSL; listed as Homo sapiens) [compound 327]	2 (2 indicates 1-5 copies/cell)								L
328 (RPRPV[pS]PSSL; listed as Homo sapiens) [compound 328]	1 (1 indicates <1 copy/cell)								L
330 (RPR[pS]AVLL; listed as Homo sapiens) [compound 330]	2 (2 indicates 1-5 copies/cell)								L
331 (RPR[pS]LEVTI; listed as Homo sapiens) [compound 331]	1 (1 indicates <1 copy/cell)								L
333 (RPR[pS]PAARL; listed as Homo sapiens) [compound 333]	1 (1 indicates <1 copy/cell)								L
334 (RPR[pS]PGSNSKV; listed as Homo sapiens) [compound 334]	1 (1 indicates <1 copy/cell)								L
336 (RPR[pS]PRQNSI; listed as Homo sapiens) [compound 336]	2 (2 indicates 1-5 copies/cell)								L
337 (RPR[pS]PSPIS; listed as Homo sapiens) [compound 337]	2 (2 indicates 1-5 copies/cell)								L
338 (RPR[pS]PTGP; listed as Homo sapiens) [compound 338]	4 (4 indicates >25 copies per cell)								L
339 (RPR[pS]PTGP[pS]NSF; listed as Homo sapiens) [compound 339]	2 (2 indicates 1-5 copies/cell)								L
342 (RPSRS[pS]PGL; listed as Homo sapiens) [compound 342]	2 (2 indicates 1-5 copies/cell)								L
343 (RPS[pS]LPDL; listed as Homo sapiens) [compound 343]	2 (2 indicates 1-5 copies/cell)	2 (2 indicates 1-5 copies/cell)		3 (3 indicates 6-25 copies per cell)	4 (4 indicates >25 copies per cell)	1 (1 indicates <1 copy/cell)	3 (3 indicates 6-25 copies per cell)	4 (4 indicates >25 copies per cell)	L
344 (RP[pS]SPALYF; listed as Homo sapiens) [compound 344]	1 (1 indicates <1 copy/cell)	1 (1 indicates <1 copy/cell)	1 (1 indicates <1 copy/cell)		1 (1 indicates <1 copy/cell)	1 (1 indicates <1 copy/cell)			L

Substance	Copies/cell class, AML1 [1]	Copies/cell class, CLL2 [1]	Copies/cell class, CLL4 [1]	Copies/cell class, JY [1]	Copies/cell class, ALL1 [1]	Copies/cell class, HCL1 [1]	Copies/cell class, B Cell [1]	Copies/cell class, T Cell [1]	L/M (HLA-B*0702)
346 (RPT[pS]RLNRL; listed as Homo sapiens) [compound 346]	2 (2 indicates 1-5 copies/cell)	2 (2 indicates 1-5 copies/cell)	2 (2 indicates 1-5 copies/cell)	4 (4 indicates >25 copies per cell)	2 (2 indicates 1-5 copies/cell)	2 (2 indicates 1-5 copies/cell)	2 (2 indicates 1-5 copies/cell)		L
347 (RPV[pS]PFQEL; listed as Homo sapiens) [compound 347]	2 (2 indicates 1-5 copies/cell)	2 (2 indicates 1-5 copies/cell)	2 (2 indicates 1-5 copies/cell)	4 (4 indicates >25 copies per cell)	3 (3 indicates 6-25 copies per cell)	3 (3 indicates 6-25 copies per cell)	3 (3 indicates 6-25 copies per cell)	3 (3 indicates 6-25 copies per cell)	L
348 (RPV[pS]PGKDI; listed as Homo sapiens) [compound 348]					1 (1 indicates <1 copy/cell)				L
349 (RPV[pT]PVSDL; listed as Homo sapiens) [compound 349]		2 (2 indicates 1-5 copies/cell)		4 (4 indicates >25 copies per cell)	4 (4 indicates >25 copies per cell)	1 (1 indicates <1 copy/cell)	2 (2 indicates 1-5 copies/cell)	2 (2 indicates 1-5 copies/cell)	L
350 (RPW[pS]PAVSA; listed as Homo sapiens) [compound 350]				1 (1 indicates <1 copy/cell)	1 (1 indicates <1 copy/cell)	1 (1 indicates <1 copy/cell)			L
351 (RPY[pS]PPFFSL; listed as Homo sapiens) [compound 351]	2 (2 indicates 1-5 copies/cell)			2 (2 indicates 1-5 copies/cell)	2 (2 indicates 1-5 copies/cell)		2 (2 indicates 1-5 copies/cell)	2 (2 indicates 1-5 copies/cell)	L
352 (RRK[pS]QVAEL; listed as Homo sapiens) [compound 352]	4 (4 indicates >25 copies per cell)								L
356 (RRS[pS]LDAEIDSL; listed as Homo sapiens) [compound 356]	1 (1 indicates <1 copy/cell)								L
358 (RSE[pS]KDRKL; listed as Homo sapiens) [compound 358]					1 (1 indicates <1 copy/cell)				L
359 (RSG[pS]LERKV; listed as Homo sapiens) [compound 359]					1 (1 indicates <1 copy/cell)				L
360 (RSL[pS]PGGAA; listed as Homo sapiens) [compound 360]					1 (1 indicates <1 copy/cell)				L
361 (RSL[pS]PLLF; listed as Homo sapiens) [compound 361]					2 (2 indicates 1-5 copies/cell)		1 (1 indicates <1 copy/cell)	1 (1 indicates <1 copy/cell)	L
363 (RTE[pS]DSGLKK; listed as Homo sapiens) [compound 363]					1 (1 indicates <1 copy/cell)				L
366 (RVR[pS]PTRSP; listed as Homo sapiens) [compound 366]	2 (2 indicates 1-5 copies/cell)								L
367 (SPA[pS]PKISL; listed as Homo sapiens) [compound 367]		1 (1 indicates <1 copy/cell)	1 (1 indicates <1 copy/cell)	4 (4 indicates >25 copies per cell)	1 (1 indicates <1 copy/cell)	1 (1 indicates <1 copy/cell)			L
368 (SPEKAGRR[pS]SL; listed as Homo sapiens) [compound 368]	1 (1 indicates <1 copy/cell)								L
